Source: paper doi:10.1101/2021.11.23.469727 (bioRxiv, 2021)
Changes are numbered by the printed parent chain.

B1: Halo:PDF2 (PROTODERMAL FACTOR2, full length, Halo-tagged) (natural protein, Arabidopsis thaliana, UniProt Q93V99 1-743, looked up)
chain: MYHPNMFESHHMFDMTPKSTSDNDLGITGSREDDFETKSGTEVTTENPSGEELQDPSQRPNKKKRYHRHTQRQIQELESFFKECPHPDDKQRKELSRDLNLEPLQVKFWFQNKRTQMKAQSERHENQILKSDNDKLRAENNRYKEALSNATCPNCGGPAAIGEMSFDEQHLRIENARLREEIDRISAIAAKYVGKPLGSSFAPLAIHAPSRSLDLEVGNFGNQTGFVGEMYGTGDILRSVSIPSETDKPIIVELAVAAMEELVRMAQTGDPLWLSTDNSVEILNEEEYFRTFPRGIGPKPLGLRSEASRQSAVVIMNHINLVEILMDVNQWSCVFSGIVSRALTLEVLSTGVAGNYNGALQVMTAEFQVPSPLVPTRENYFVRYCKQHSDGSWAVVDVSLDSLRPSTPILRTRRRPSGCLIQELPNGYSKVTWIEHMEVDDRSVHNMYKPLVQSGLAFGAKRWVATLERQCERLASSMASNIPGDLSVITSPEGRKSMLKLAERMVMSFCSGVGASTAHAWTTMSTTGSDDVRVMTRKSMDDPGRPPGIVLSAATSFWIPVAPKRVFDFLRDENSRKEWDILSNGGMVQEMAHIANGHEPGNCVSLLRVNSGNSSQSNMLILQESCTDASGSYVIYAPVDIVAMNVVLSGGDPDYVALLPSGFAILPDGSVGGGDGNQHQEMVSTTSSGSCGGSLLTVAFQILVDSVPTAKLSLGSVATVNSLIKCTVERIKAAVSCDVGGGA
B2: ATML1 (Arabidopsis thaliana MERISTEM LAYER1), wild type, protein of the EMSA (natural protein, UniProt Q8RWU4 1-762, looked up)
chain: MYHPNMFESHHHMFDMTPKNSENDLGITGSHEEDFETKSGAEVTMENPLEEELQDPNQRPNKKKRYHRHTQRQIQELESFFKECPHPDDKQRKELSRELSLEPLQVKFWFQNKRTQMKAQHERHENQILKSENDKLRAENNRYKDALSNATCPNCGGPAAIGEMSFDEQHLRIENARLREEIDRISAIAAKYVGKPLMANSSSFPQLSSSHHIPSRSLDLEVGNFGNNNNSHTGFVGEMFGSSDILRSVSIPSEADKPMIVELAVAAMEELVRMAQTGDPLWVSSDNSVEILNEEEYFRTFPRGIGPKPIGLRSEASRESTVVIMNHINLIEILMDVNQWSSVFCGIVSRALTLEVLSTGVAGNYNGALQVMTAEFQVPSPLVPTRENYFVRYCKQHSDGIWAVVDVSLDSLRPSPITRSRRRPSGCLIQELQNGYSKVTWVEHIEVDDRSVHNMYKPLVNTGLAFGAKRWVATLDRQCERLASSMASNIPACDLSVITSPEGRKSMLKLAERMVMSFCTGVGASTAHAWTTLSTTGSDDVRVMTRKSMDDPGRPPGIVLSAATSFWIPVAPKRVFDFLRDENSRSEWDILSNGGLVQEMAHIANGRDPGNSVSLLRVNSGNSGQSNMLILQESCTDASGSYVIYAPVDIIAMNVVLSGGDPDYVALLPSGFAILPDGSARGGGGSANASAGAGVEGGGEGNNLEVVTTTGSCGGSLLTVAFQILVDSVPTAKLSLGSVATVNSLIKCTVERIKAALACDGA
B3: L1-box probe (3x L1 motif) (dsDNA)
DNA 1: GGGTACATTTATACATTTATACATTTAAAT
DNA 2: ATTTAAATGTATAAATGTATAAATGTACCC

Assays:
native gel or EMSA = target: the molecule itself; assay: native gel or EMSA
Halo:pdf2K107E = target: T1, Halo:pdf2K107E (Arabidopsis thaliana, UniProt Q93V99 1-743, K107E); assay: EMSA
T1 sequence: B1 chain with K107E

Halo:ATML1 = target: T2, Halo:ATML1 (Arabidopsis thaliana, UniProt Q8RWU4 1-762); assay: EMSA
T2 sequence: B2 chain

Halo:PDF2 = target: T3, Halo:PDF2 (Arabidopsis thaliana, UniProt Q93V99 1-743); assay: EMSA
T3 sequence: B1 chain

Halo:atml1ΔST = target: T4, Halo:atml1ΔST (Arabidopsis thaliana, UniProt Q8RWU4 1-253+483-762, internal_change); assay: EMSA
T4 sequence: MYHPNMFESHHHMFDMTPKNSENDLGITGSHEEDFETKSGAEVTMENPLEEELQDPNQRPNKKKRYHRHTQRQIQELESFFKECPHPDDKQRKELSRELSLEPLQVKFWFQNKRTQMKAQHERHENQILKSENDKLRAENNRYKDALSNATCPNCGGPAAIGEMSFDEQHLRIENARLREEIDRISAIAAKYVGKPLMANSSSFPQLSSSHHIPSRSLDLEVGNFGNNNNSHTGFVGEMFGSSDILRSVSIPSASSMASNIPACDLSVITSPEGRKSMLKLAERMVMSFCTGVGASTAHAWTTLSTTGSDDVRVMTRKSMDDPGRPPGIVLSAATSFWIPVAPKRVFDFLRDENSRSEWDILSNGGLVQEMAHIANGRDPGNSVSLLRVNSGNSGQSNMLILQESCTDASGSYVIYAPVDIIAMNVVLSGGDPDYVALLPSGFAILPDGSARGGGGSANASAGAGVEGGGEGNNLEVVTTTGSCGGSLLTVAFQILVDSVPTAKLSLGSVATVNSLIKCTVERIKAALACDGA

Halo:pdf2ΔST = target: T5, Halo:pdf2ΔST (Arabidopsis thaliana, UniProt Q93V99 1-244+475-743, internal_change); assay: EMSA
T5 sequence: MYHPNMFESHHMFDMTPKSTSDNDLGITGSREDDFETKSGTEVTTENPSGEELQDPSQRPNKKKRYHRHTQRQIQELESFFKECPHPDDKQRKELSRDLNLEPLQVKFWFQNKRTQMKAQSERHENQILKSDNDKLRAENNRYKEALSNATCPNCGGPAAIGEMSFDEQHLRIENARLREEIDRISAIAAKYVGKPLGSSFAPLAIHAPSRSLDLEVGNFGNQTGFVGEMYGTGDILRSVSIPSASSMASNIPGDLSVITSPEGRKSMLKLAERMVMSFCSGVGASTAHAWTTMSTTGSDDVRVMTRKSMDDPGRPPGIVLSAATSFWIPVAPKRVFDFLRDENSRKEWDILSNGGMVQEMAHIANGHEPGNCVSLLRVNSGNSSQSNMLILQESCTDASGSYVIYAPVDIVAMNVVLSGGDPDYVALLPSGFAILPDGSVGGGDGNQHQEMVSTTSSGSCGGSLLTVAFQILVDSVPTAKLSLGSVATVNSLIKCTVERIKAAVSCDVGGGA

Binder	stoichiometry N (native gel or EMSA)	binding result (Halo:pdf2K107E)	binding result (Halo:ATML1)	binding result (Halo:PDF2)	binding result (Halo:atml1ΔST)	binding result (Halo:pdf2ΔST)
B1	2	–	–	–	–	–
B2	2	–	–	–	–	–
B3	–	no binding	binds	binds	binds	binds
